Assay results: patent US20030073236A1, “p193 proteins and nucleic acids, and uses thereof” (priority 1999, published 2003)

Tests used:
[1] = biological target: T1, SV40 T-Ag (Simian virus 40, UniProt P03070); experiment: p193/T-Ag binding by immune precipitation; details: radiolabeled in vitro translated p193 mixed with recombinant T-Ag
T1 construct: construct designated CMV-T-Ag; expressed in transfected cells; host or cells: NIH-3T3
Experimental: A T-Ag cDNA was subcloned into pcDNA3.1 expression vector (which lacks the epitope tag; construct designated CMV-T-Ag). For IP/Western analyses, NIH-3T3 cells (ATCC, Rockville Md.) were co-transfected with […] and CMV-p193myc using the calcium phosphate approach (Sambrook, J., Fritsch, E. F., and Maniatis, T. (1989) Molecular cloning, Cold Spring Harbor Laboratory Press, Cold Spring Harbor, N.Y.). Protein (1 mg) prepared from the transfected cells was reacted with an anti-T-Ag (PAb419), an anti-myc (9E10, Santa Cruz Biotech.), or an IgG subtype-matched non-specific antibody (anti-GST, Pharmacia), and the resulting immune complexes were subjected to Western blot analysis. 100 μg of total protein from non-transfected and transfected cells were included as controls. The blots were probed with an anti-myc (9E10) or anti-T-Ag (PAb416) antibody, and signal was developed using the ECL method. […] Immune complex was then visualized via autoradiography (p193) or Western blotting (T-Ag) as described above.

[2] = system: ES-derived cardiomyocytes; experiment: Isoproterenol effect on growth of ES-derived cardiomyocytes co-expressing p193dn and p53dn; format: cell-based; details: cells with MHC-p193dn and MHC-p53dn, isoproterenol 1 μM mg/ml for 58 days, vs. absence
Source text: It follows then that if the p193 and p53 pathways are blocked, hypertrophic stimuli might result in direct cell cycle activity. To test this, undifferentiated ES cells were transfected with the MHC-neor/pGK-hygror transgene in combination with both the MHC-p193dn and MHC-p53dn transgenes. Transfected cells were enriched by virtue of their resistance to hygromycin, and then induced to differentiate. The ES-derived cardiomyocytes were then enriched by virtue of their resistance to G418. Cardiomyocyte growth was then compared in these cultures in the presence vs. absence of exogenous isoproterenol (1 μM mg/ml) for 58 days.

T1 sequence (Q8VE73 whole entry): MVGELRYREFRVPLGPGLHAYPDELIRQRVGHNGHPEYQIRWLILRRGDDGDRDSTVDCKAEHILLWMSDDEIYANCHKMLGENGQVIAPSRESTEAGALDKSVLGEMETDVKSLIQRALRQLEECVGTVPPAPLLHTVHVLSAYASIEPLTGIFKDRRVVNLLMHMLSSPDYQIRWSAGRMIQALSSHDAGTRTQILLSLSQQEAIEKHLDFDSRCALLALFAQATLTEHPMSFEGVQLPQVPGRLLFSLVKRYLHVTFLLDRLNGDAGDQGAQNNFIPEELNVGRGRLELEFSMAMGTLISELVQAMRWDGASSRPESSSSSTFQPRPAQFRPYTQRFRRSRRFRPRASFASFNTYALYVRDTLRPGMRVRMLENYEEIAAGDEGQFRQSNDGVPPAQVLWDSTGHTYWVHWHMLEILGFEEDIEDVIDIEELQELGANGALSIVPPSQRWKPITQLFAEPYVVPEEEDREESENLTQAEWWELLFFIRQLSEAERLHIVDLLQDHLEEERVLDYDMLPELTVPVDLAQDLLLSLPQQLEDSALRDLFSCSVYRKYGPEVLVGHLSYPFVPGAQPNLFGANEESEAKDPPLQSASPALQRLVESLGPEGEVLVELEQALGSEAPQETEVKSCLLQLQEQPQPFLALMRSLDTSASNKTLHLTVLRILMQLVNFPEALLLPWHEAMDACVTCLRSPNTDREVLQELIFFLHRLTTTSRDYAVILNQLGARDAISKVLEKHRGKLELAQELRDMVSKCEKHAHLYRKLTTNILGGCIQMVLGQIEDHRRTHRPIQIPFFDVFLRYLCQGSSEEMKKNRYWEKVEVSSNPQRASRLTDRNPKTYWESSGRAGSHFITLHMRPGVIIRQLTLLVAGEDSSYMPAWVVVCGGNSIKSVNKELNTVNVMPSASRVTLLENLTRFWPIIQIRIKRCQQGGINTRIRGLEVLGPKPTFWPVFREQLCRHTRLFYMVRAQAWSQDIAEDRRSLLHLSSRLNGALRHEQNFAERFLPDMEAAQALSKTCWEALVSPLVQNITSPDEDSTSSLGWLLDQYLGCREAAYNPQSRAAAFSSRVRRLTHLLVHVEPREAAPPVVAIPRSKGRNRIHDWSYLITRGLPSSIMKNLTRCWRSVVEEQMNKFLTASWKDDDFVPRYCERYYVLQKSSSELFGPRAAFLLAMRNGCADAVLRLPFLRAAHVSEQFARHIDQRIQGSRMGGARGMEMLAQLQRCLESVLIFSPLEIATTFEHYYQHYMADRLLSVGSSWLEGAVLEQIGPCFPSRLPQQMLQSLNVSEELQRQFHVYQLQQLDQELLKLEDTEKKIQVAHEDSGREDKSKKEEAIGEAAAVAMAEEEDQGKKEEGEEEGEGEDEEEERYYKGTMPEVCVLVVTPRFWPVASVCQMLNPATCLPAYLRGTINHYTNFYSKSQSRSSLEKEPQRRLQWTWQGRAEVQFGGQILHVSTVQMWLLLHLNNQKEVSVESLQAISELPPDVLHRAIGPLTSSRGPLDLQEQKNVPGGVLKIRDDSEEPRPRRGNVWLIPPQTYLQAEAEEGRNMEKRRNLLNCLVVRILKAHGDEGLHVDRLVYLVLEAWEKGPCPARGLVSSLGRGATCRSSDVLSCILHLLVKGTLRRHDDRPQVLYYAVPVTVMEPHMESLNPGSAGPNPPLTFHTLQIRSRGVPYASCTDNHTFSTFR
T1 sequence (P03070 whole entry): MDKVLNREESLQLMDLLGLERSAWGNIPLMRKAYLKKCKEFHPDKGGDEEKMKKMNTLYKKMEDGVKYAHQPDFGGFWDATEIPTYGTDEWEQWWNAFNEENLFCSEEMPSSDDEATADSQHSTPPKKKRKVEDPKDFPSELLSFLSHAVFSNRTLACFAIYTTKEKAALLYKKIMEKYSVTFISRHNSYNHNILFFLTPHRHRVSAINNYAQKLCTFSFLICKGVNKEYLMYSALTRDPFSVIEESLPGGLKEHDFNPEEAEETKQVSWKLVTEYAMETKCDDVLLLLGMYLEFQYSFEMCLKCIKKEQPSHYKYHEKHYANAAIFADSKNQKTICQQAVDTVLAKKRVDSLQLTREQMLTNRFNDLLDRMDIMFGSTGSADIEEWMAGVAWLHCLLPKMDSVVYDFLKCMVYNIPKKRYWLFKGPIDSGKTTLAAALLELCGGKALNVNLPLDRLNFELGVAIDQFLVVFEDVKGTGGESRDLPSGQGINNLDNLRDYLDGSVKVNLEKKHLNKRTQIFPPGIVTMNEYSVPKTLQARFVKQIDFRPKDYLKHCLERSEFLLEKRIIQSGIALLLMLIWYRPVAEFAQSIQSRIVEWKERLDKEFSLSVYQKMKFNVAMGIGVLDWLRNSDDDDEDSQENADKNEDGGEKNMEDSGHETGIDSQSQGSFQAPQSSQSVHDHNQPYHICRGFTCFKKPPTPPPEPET

Row | Molecule | binding of in vitro translated protein to recombinant T-Ag (IP) [1] | cardiomyocyte colony size [2]
1 | p193: apoptosis associated, T-Ag binding protein of 1689 amino acid residues (mouse, SEQ. I.D. NO. 2); here in vitro translated | present in immune complex generated with anti-T-Ag antibody | –
2 | CC(C)NCC(O)c1ccc(O)c(O)c1 (centres unmarked) [isoproterenol] | – | Markedly enhanced cardiomyocyte colony size
